Results as given in patent US10184116B2, “Chimeric genes for the catalytic protein of Oplophorus luciferase and use thereof” (JNC CORPORATION, priority 2014, dated 2019).

Legend:
[1] = system: CHO-K1 cells; test: Luminescence activity of WNanoKAZ mutants expressed by secretory expression vectors in animal culture cells (Example 13); assay type: cell-based, Chinese hamster; details: pcDNA3-GLsp- secretory vector, coelenterazine substrate
Procedure: Chinese hamster ovary cell line CHO-K1 was cultured in Ham's F-12 medium (manufactured by Wako Pure Chemical Industries, Ltd.) supplemented with 10% (v/v) fetal bovine serum (manufactured by Biowest Inc.). The CHO-K1 cells were seeded in a 6-well plate in 1×10^5 cells/well/2 mL medium (n=2) and cultured in an incubator at 37° C. in 5% (v/v) CO2. After 24 hours, the purified recombinant plasmid was transfected to CHO-K1 cells using a FuGene HD transfection kit (manufactured by Promega Corp.) and the cells were used for subsequent experiment. Specifically, 1 μg of the recombinant plasmid, 0.1 μg of the internal standard vector pGL4.13 [Luc2/sv40] and 3 μL of FuGene HD were added to 100 μL of the medium and allowed to stand at room temperature for 15 minutes. Subsequently, 100 μL of the DNA-FuGene complex solution was added to the cells in the 6-well plate. After incubation for 46 hours, the culture medium was collected. On the other hand, the KAZ mutant expressed in the cells was washed 3 times with 3 mL of 1×PBS, then suspended in 1 mL of 1×PBS and disrupted by sonication on ice. The resultant cell extract of WNanoKAZ was used as the enzyme solution.
After adding 5 μL of the culture medium and cell extract obtained in EXAMPLE 5 to 100 μL of 30 mM Tris-HCl (pH 7.6)-10 mM EDTA (Wako Pure Chemical Industries, Ltd.) containing 1 μg of coelenterazine (manufactured by JNC Corp.), a luminescence reaction was started. Luminescence activity was measured for 60 seconds using a luminometer (manufactured by Atto Inc.: AB2200). The maximum intensity of luminescence (Imax) was given as a percentage (%).
The recombinant plasmid obtained in EXAMPLE 12 or 4 was purified in a manner similar to EXAMPLE 5 and dissolved in sterile water. The firefly luciferase vector (pGL4.13 [Luc2/sv40]: manufactured by Promega Corp.) was similarly prepared and used as an internal standard.
Culture medium containing two amino acid-substituted KAZ mutants and three amino acid-substituted KAZ mutants and cell extracts of the KAZ mutants as the enzyme solutions were prepared by the same procedure as in EXAMPLE 9.
The resultant culture medium and cell extracts were used to measure luminescence activity as in EXAMPLE 6.

[2] = Luminescence activity of ZZ-fused WNanoKAZ mutants in crude enzyme solution (Example 10); assay type: biochemical; details: coelenterazine substrate; for Relative luminescence activity (Imax): ZZ-fused, pCold-ZZ-P- vector in E. coli, KAZ = 1.0; for fold higher activity than native KAZ / fold higher activity than the relative activity 7.4 of dnKAZ: Imax
Procedure: In order to express ZZ-fused KAZ mutants in E. coli, the recombinant plasmid produced in EXAMPLE 8 and pCold-ZZ-P-WNanoKAZ produced in EXAMPLE 1 were used. The crude enzyme solution was prepared in a manner similar to EXAMPLE 2, using the E. coli BL21 strain (Novagen, Madison, Wis.) as a host cell. Then, 5 μL of the crude enzyme solution obtained was subjected to SDS-PAGE analysis to confirm the protein expression in all mutants. In FIG. 1, M and 1 to 8 represent as follows. M: molecular weight size markers; 1: ZZ-P-KAZ; 2: ZZ-P-WNanoKAZ; 3: ZZ-P-WNanoKAZ-V90I; 4: ZZ-P-WNanoKAZ-E115P; 5: ZZ-P-WNanoKAZ-K124Q; 6: ZZ-P-WNanoKAZ-I138Y; 7: ZZ-P-WNanoKAZ-R166N; 8: ZZ-P-dnKAZ. It was confirmed from FIG. 1 that all mutants were expressed.
(§1) DTT was added to the crude enzyme solution obtained in EXAMPLE 9 at a final concentration of 1 mM, and then allowed to stand in an ice-water bath over 8 hours or more. After 1 μL of the crude enzyme solution was added to 100 μL of 30 mM Tris-HCl (pH 7.6)-10 mM EDTA (Wako Pure Chemical Industries, Ltd.) containing 1 μg of coelenterazine (manufactured by JNC Corp.), a luminescence reaction was started. Luminescence activity was measured for 60 seconds using a luminometer (manufactured by Atto Inc.: AB2200). The maximum intensity of luminescence (Imax) was given as a relative luminescence activity (rlu).

[3] = Substrate specificity of WNanoKAZ mutants, crude enzyme solution (Example 11); assay type: biochemical; details: for Relative luminescence activity, 6h-CTZ, Imax / Relative luminescence activity, 6h-CTZ, Int.: substrate 6h-CTZ; for Relative luminescence activity, 6h-f-CTZ, Imax / Relative luminescence activity, 6h-f-CTZ, Int.: substrate 6h-f-CTZ; for Relative luminescence activity, CTZ, Imax / Relative luminescence activity, CTZ, Int.: substrate CTZ
Procedure: as §1
Each of the coelenterazine analogues used for substrate specificity studies was synthesized by the methods described in publications. Specifically, bis-coelenterazine was synthesized by the method described in Nakamura et al. (1997) Tetrahedron Lett. 38: 6405-6406, furimazine by the method described in Hall et al. (2012) ACS Chem. Biol. […], and, 6h-coelenterazine, f-coelenterazine and 6h-f-coelenterazine by the method described in Inouye et al (2013) Biochem. Biophys. Res. Commun. 437: 23-28. Luminescence activity was measured by the same method as in EXAMPLE 10, using the crude enzyme solution obtained in EXAMPLE 10, in which coelenterazine or its analogue was used as the luminescence substrate.

| Molecule | Relative luminescence activity (Imax) [2] | fold higher activity than native KAZ [2] [fold] | Relative luminescence activity, Furimazine, Imax [3] | Relative luminescence activity, bis-CTZ, Imax [3] | Relative luminescence activity, f-CTZ, Imax [3] | Relative luminescence activity, h-CTZ, Imax [3] | Relative luminescence activity, Furimazine, Int. [3] | Relative luminescence activity, bis-CTZ, Int. [3] | Relative luminescence activity, f-CTZ, Int. [3] | Relative luminescence activity, h-CTZ, Int. [3] | fold higher activity than the other coelenterazine analogues when coelenterazine was used as the substrate [3] [fold] | Relative luminescence activity, 6h-CTZ, Imax [3] | Relative luminescence activity, 6h-CTZ, Int. [3] | Relative luminescence activity, 6h-f-CTZ, Imax [3] | Relative luminescence activity, 6h-f-CTZ, Int. [3] | Relative luminescence activity, CTZ, Imax [3] | Relative luminescence activity, CTZ, Int. [3] | Relative luminescence activity (%, Imax) Cell extracts [1] [%] | Relative luminescence activity (%, Imax) Culture medium [1] [%] | fold higher activity than the relative activity 7.4 of dnKAZ [2] [fold] | further results |
| --- | --- | --- | --- | --- | --- | --- | --- | --- | --- | --- | --- | --- | --- | --- | --- | --- | --- | --- | --- | --- | --- |
| WNanoKAZ-I138Y: single amino acid-substituted WNanoKAZ mutant I138Y; SEQ ID NO: 14 (protein) FTLADFVGDWQQTAGYNQDQVLEQGGLSSLFQALGVSVTPIQKVVLSGENGLKADIHVIIPYEGLSGFQMGLIEMIFKVVYPVDDHHFKVILHYGTLVIDGVTPNMIDYFGRPYEGIAVFDGKKITVTGTLWNGNKIYDERLINPDGSLLFRVTINGVTGWRLCERILA | 8.5 | 8.5 | 11 | 18 | 29 | 35 | 8.9 | 17 | 18 | 22 | 1.1 | 1.7 | 2.8 | 17 | 10 | 8.5 | 8.9 | 10 | <0.01 | 1.1 | activity compared with dnKAZ (in words) [2]: decreased to the same level as that of dnKAZ |
| WNanoKAZ-E115P: WNanoKAZ with substitution of proline for glutamic acid at position 115; SEQ ID NO: 10 (protein) FTLADFVGDWQQTAGYNQDQVLEQGGLSSLFQALGVSVTPIQKVVLSGENGLKADIHVIIPYEGLSGFQMGLIEMIFKVVYPVDDHHFKVILHYGTLVIDGVTPNMIDYFGRPYPGIAVFDGKKITVTGTLWNGNKIIDERLINPDGSLLFRVTINGVTGWRLCERILA | 31 | 31 | 13 | 18 | 22 | 27 | 11 | 19 | 14 | 17 | 4.2 | 5.9 | 6.1 | 14 | 11 | 31 | 26 | 12 | <0.01 | 4.2 |  |

Second part, led by results:

| Relative luminescence activity (Imax) [2] | fold higher activity than native KAZ [2] [fold] | Relative luminescence activity, Furimazine, Imax [3] | Relative luminescence activity, bis-CTZ, Imax [3] | Relative luminescence activity, f-CTZ, Imax [3] | Relative luminescence activity, h-CTZ, Imax [3] | Relative luminescence activity, Furimazine, Int. [3] | Relative luminescence activity, bis-CTZ, Int. [3] | Relative luminescence activity, f-CTZ, Int. [3] | Relative luminescence activity, h-CTZ, Int. [3] | fold higher activity than the other coelenterazine analogues when coelenterazine was used as the substrate [3] [fold] | Relative luminescence activity, 6h-CTZ, Imax [3] | Relative luminescence activity, 6h-CTZ, Int. [3] | Relative luminescence activity, 6h-f-CTZ, Imax [3] | Relative luminescence activity, 6h-f-CTZ, Int. [3] | Relative luminescence activity, CTZ, Imax [3] | Relative luminescence activity, CTZ, Int. [3] | Molecule | Relative luminescence activity (%, Imax) Cell extracts [1] [%] | Relative luminescence activity (%, Imax) Culture medium [1] [%] | fold higher activity than the relative activity 7.4 of dnKAZ [2] [fold] | further results |
| --- | --- | --- | --- | --- | --- | --- | --- | --- | --- | --- | --- | --- | --- | --- | --- | --- | --- | --- | --- | --- | --- |
| 34 | 34 | 17 | 23 | 31 | 41 | 15 | 21 | 22 | 22 | 4.6 | 5.1 | 5.6 | 23 | 23 | 34 | 35 | WNanoKAZ-V90I: single amino acid-substituted WNanoKAZ mutant, valine 90 back to isoleucine; SEQ ID NO: 8 (protein) FTLADFVGDWQQTAGYNQDQVLEQGGLSSLFQALGVSVTPIQKVVLSGENGLKADIHVIIPYEGLSGFQMGLIEMIFKVVYPVDDHHFKIILHYGTLVIDGVTPNMIDYFGRPYEGIAVFDGKKITVTGTLWNGNKIIDERLINPDGSLLFRVTINGVTGWRLCERILA | 15 | 0.03 | 4.6 |  |
| 34 | 34 | 18 | 36 | 64 | 70 | 11 | 33 | 40 | 41 | 4.6 | 6.2 | 6.1 | 40 | 35 | 34 | 32 | WNanoKAZ-K124Q: single amino acid-substituted WNanoKAZ mutant K124Q; SEQ ID NO: 12 (protein) FTLADFVGDWQQTAGYNQDQVLEQGGLSSLFQALGVSVTPIQKVVLSGENGLKADIHVIIPYEGLSGFQMGLIEMIFKVVYPVDDHHFKVILHYGTLVIDGVTPNMIDYFGRPYEGIAVFDGKQITVTGTLWNGNKIIDERLINPDGSLLFRVTINGVTGWRLCERILA | 21 | 0.03 | 4.6 |  |
